Data on 2 molecules can be found in article PMC4430316, “Differential Phosphorylation of RNA Polymerase III and the Initiation Factor TFIIIB in Saccharomyces cerevisiae” (PLoS ONE, 2015).

Where only a bound is given, the exact number is not on record here.

The target in this assay is T1, Rpc160-HA (S. cerevisiae, UniProt P04051 1-1460).
T1 construct: Rpc160 (C160), largest subunit of RNA polymerase III, S. cerevisiae; Precipitated from cell extract, so other pol III subunits are probably present with it; also called C160-3HA; largest subunit of pol III; not shown: 3HA, C-terminal, kept
T1 sequence (looked up): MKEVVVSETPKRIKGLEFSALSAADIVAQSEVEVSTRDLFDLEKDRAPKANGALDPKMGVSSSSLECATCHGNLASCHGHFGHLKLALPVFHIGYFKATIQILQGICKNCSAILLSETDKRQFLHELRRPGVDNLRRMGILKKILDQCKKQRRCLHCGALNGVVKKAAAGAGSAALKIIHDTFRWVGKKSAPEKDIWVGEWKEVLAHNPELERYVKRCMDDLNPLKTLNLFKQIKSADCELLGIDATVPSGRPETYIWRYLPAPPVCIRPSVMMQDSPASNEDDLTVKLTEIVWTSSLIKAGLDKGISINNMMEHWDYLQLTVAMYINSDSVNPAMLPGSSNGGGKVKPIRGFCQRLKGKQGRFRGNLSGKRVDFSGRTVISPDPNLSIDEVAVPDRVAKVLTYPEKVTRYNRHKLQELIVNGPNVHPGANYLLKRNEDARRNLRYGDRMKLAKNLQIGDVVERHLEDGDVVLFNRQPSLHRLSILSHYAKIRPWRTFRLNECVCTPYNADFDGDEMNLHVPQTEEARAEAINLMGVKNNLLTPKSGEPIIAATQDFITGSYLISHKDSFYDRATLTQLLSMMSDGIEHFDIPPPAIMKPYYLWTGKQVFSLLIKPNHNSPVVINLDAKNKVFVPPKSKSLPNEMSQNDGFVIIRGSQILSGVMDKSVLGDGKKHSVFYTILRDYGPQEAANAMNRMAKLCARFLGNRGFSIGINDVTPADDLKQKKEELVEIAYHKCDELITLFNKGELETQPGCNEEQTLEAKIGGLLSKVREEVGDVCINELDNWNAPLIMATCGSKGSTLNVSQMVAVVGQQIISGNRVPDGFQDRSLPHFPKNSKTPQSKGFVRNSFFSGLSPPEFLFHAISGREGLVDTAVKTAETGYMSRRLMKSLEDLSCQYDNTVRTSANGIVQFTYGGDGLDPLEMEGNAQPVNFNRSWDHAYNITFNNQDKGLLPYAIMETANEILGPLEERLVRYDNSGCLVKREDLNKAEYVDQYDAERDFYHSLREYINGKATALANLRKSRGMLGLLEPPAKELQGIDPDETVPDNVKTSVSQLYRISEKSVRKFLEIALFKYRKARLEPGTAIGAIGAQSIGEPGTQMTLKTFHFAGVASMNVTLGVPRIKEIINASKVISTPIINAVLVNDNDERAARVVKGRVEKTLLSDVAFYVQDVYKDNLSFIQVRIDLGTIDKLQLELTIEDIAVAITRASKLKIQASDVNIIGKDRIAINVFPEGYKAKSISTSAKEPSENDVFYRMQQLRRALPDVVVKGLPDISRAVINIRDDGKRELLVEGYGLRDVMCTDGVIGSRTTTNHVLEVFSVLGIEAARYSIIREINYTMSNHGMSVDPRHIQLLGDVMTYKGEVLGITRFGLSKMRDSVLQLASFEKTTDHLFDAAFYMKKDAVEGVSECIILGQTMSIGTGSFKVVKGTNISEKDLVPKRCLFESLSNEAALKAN
In words: co-IP; Rpc160-HA precipitated with HA monoclonal antibody 12CA5 and protein G-Sepharose from yeast extracts (glass bead breakage, KBC100 buffer with protease and phosphatase inhibitors); Maf1 detected with polyclonal Maf1 antibody, Maf1myc with anti-myc; cells treated with rapamycin or untreated; also in BDP1 wild-type and BDP1-4SA strains (S4 Fig). The following applies: partners not purified.

B1: Maf1 (natural protein, S. cerevisiae, UniProt P41910 1-395, looked up)
chain: MKFIDELDIERVNQTLNFETNDCKIVGSCDIFTTKAVASDRKLYKTIDQHLDTILQENENYNATLQQQLAAPETNQSPCSSPFYSNRRDSNSFWEQKRRISFSEYNSNNNTNNSNGNSSNNNNYSGPNGSSPATFPKSAKLNDQNLKELVSNYDSGSMSSSSLDSSSKNDERIRRRSSSSISSFKSGKSSNNNYSSGTATNNVNKRRKSSINERPSNLSLGPFGPINEPSSRKIFAYLIAILNASYPDHDFSSVEPTDFVKTSLKTFISKFENTLYSLGRQPEEWVWEVINSHMTLSDCVLFQYSPSNSFLEDEPGYLWNLIGFLYNRKRKRVAYLYLICSRLNSSTGEVEDALAKKPQGKLIIDDGSNEYEGEYDFTYDENVIDDKSDQEESLQ
notes: Maf1, repressor of RNA polymerase III transcription, S. cerevisiae; untagged, detected with a polyclonal Maf1 antibody; Phosphorylation state differs between control and rapamycin-treated cells; also called untagged Maf1; source: endogenous, yeast cell extract
On to B1, for which the “fold increase of Maf1 co-immunoprecipitated with Rpc160 in rapamycin-treated against untreated cells” value is ~13 fold.

B2: Maf1myc (natural protein, S. cerevisiae, UniProt P41910 1-395, looked up)
chain: MKFIDELDIERVNQTLNFETNDCKIVGSCDIFTTKAVASDRKLYKTIDQHLDTILQENENYNATLQQQLAAPETNQSPCSSPFYSNRRDSNSFWEQKRRISFSEYNSNNNTNNSNGNSSNNNNYSGPNGSSPATFPKSAKLNDQNLKELVSNYDSGSMSSSSLDSSSKNDERIRRRSSSSISSFKSGKSSNNNYSSGTATNNVNKRRKSSINERPSNLSLGPFGPINEPSSRKIFAYLIAILNASYPDHDFSSVEPTDFVKTSLKTFISKFENTLYSLGRQPEEWVWEVINSHMTLSDCVLFQYSPSNSFLEDEPGYLWNLIGFLYNRKRKRVAYLYLICSRLNSSTGEVEDALAKKPQGKLIIDDGSNEYEGEYDFTYDENVIDDKSDQEESLQ
notes: Maf1, repressor of RNA polymerase III transcription, S. cerevisiae; also called Maf1-9myc; C-terminal myc-tagged Maf1
As for B2, the “fold increase of Maf1myc co-immunoprecipitated with Rpc160 in rapamycin-treated against untreated cells” value was < 2 fold.
